In patent US20200164059A1:
Where two headings read alike, the source gives them in different places.

What was measured:
[1] = biological target: gp350 on EBV virions (Epstein Barr virus) (UniProt P03200); experiment: cell-based or functional assay
[2] = biological target: EBV gH/gL heterodimer, recombinant ectodomain (Epstein Barr virus); experiment: BLI kinetics, pH 5.0, ligand CL40 Mab, analyte gH/gL; KD M x10^-9
[3] = biological target: EBV gH/gL heterodimer, recombinant ectodomain (Epstein Barr virus); experiment: BLI kinetics, pH 5.0, ligand CL40 Mab, analyte gH/gL; kon (1/Ms) x10^5
[4] = biological target: gH/gL on EBV virions (Epstein Barr virus) (UniProt P03231); experiment: cell-based or functional assay
[5] = biological target: EBV gH/gL heterodimer, recombinant ectodomain (Epstein Barr virus); experiment: BLI kinetics, pH 7.4, ligand CL40 Mab, analyte gH/gL; koff (1/s) x10^-3
[6] = biological target: EBV gH/gL heterodimer, recombinant ectodomain (Epstein Barr virus); experiment: BLI kinetics, pH 7.4, ligand CL40 Mab, analyte gH/gL; kon (1/Ms) x10^5
[7] = biological target: EBV gH/gL heterodimer, recombinant ectodomain (Epstein Barr virus); experiment: BLI kinetics, pH 5.0, ligand CL40 Mab, analyte gH/gL; KA M^-1 x10^7
[8] = biological target: EBV gH/gL heterodimer, recombinant ectodomain (Epstein Barr virus); experiment: BLI kinetics, pH 7.4, ligand CL40 Mab, analyte gH/gL; KA M^-1 x10^7
[9] = biological target: EBV gH/gL heterodimer, recombinant ectodomain (Epstein Barr virus); experiment: BLI kinetics, pH 5.0, ligand CL40 Mab, analyte gH/gL; koff (1/s) x10^-3
[10] = biological target: EBV gH/gL heterodimer, recombinant ectodomain (Epstein Barr virus); experiment: BLI kinetics, pH 7.4, ligand CL40 Mab, analyte gH/gL; KD M x10^-9
[11] = biological target: EBV gH/gL heterodimer, recombinant ectodomain (Epstein Barr virus); experiment: BLI kinetics, pH 7.4, ligand CL59 Mab, analyte gH/gL; kon (1/Ms) x10^5
[12] = biological target: EBV gH/gL heterodimer, recombinant ectodomain (Epstein Barr virus); experiment: BLI kinetics, pH 5.0, ligand CL59 Mab, analyte gH/gL; KA M^-1 x10^7
[13] = biological target: EBV gH/gL heterodimer, recombinant ectodomain (Epstein Barr virus); experiment: BLI kinetics, pH 7.4, ligand CL59 Mab, analyte gH/gL; KD M x10^-9
[14] = biological target: EBV gH/gL heterodimer, recombinant ectodomain (Epstein Barr virus); experiment: BLI kinetics, pH 7.4, ligand CL59 Mab, analyte gH/gL; KA M^-1 x10^7
[15] = biological target: EBV gH/gL heterodimer, recombinant ectodomain (Epstein Barr virus); experiment: BLI kinetics, pH 5.0, ligand CL59 Mab, analyte gH/gL; KD M x10^-9
[16] = biological target: EBV gH/gL heterodimer, recombinant ectodomain (Epstein Barr virus); experiment: BLI kinetics, pH 5.0, ligand CL59 Mab, analyte gH/gL; koff (1/s) x10^-3
[17] = biological target: EBV gH/gL heterodimer, recombinant ectodomain (Epstein Barr virus); experiment: BLI kinetics, pH 5.0, ligand CL59 Mab, analyte gH/gL; kon (1/Ms) x10^5
[18] = biological target: EBV gH/gL heterodimer, recombinant ectodomain (Epstein Barr virus); experiment: BLI kinetics, pH 7.4, ligand CL59 Mab, analyte gH/gL; koff (1/s) x10^-3
[19] = biological target: EBV gH/gL heterodimer, recombinant ectodomain (Epstein Barr virus); experiment: BLI kinetics, pH 7.4, ligand gH/gL, analyte gp42; KD M x10^-9
[20] = biological target: EBV gH/gL heterodimer, recombinant ectodomain (Epstein Barr virus); experiment: BLI kinetics, pH 7.4, ligand gH/gL, analyte gp42; KA M^-1 x10^7
[21] = biological target: EBV gH/gL heterodimer, recombinant ectodomain (Epstein Barr virus); experiment: BLI kinetics, pH 7.4, ligand gH/gL, analyte gp42; kon (1/Ms) x10^5
[22] = biological target: EBV gH/gL heterodimer, recombinant ectodomain (Epstein Barr virus); experiment: BLI kinetics, pH 7.4, ligand gH/gL, analyte gp42; koff (1/s) x10^-3
[23] = biological target: EBV gH/gL heterodimer, recombinant ectodomain (Epstein Barr virus); experiment: BLI kinetics, pH 7.4, ligand gH/gL, analyte gp42 T175A; KD M x10^-9
[24] = biological target: EBV gH/gL heterodimer, recombinant ectodomain (Epstein Barr virus)

72A1 (antibody)
neutralization of B95.8/F EBV infection of B (Raji) cells, IC50 [1]: 0.08 µg/mL

CL40 (antibody)
Kd [2]: 5.99 nM | kon [3]: 594000 M⁻¹ s⁻¹ | concentration reducing B cell (Raji) infection to 50% [4]: 14.6 µg/mL | fold decrease in fold potency against AMMO1, B cell (Raji) infection [4]: 100 fold | koff [5]: 0.00318 s⁻¹ | kon [6]: 469000 M⁻¹ s⁻¹ | Ka [7]: 1.67e+08 M⁻¹ | Ka [8]: 1.48e+08 M⁻¹ | koff [9]: 0.00356 s⁻¹ | Kd [10]: 6.77 nM

CL59 (antibody)
kon [11]: 438000 M⁻¹ s⁻¹ | Ka [12]: 1.81e+08 M⁻¹ | Kd [13]: 6.39 nM | Ka [14]: 1.57e+08 M⁻¹ | Kd [15]: 5.52 nM | koff [16]: 0.00186 s⁻¹ | kon [17]: 337000 M⁻¹ s⁻¹ | koff [18]: 0.0028 s⁻¹

EBV gp42, recombinant ectodomain
Kd [19]: 1.28 nM | Ka [20]: 7.84e+08 M⁻¹ | kon [21]: 224000 M⁻¹ s⁻¹ | koff [22]: 0.000286 s⁻¹

gp42 T175A, recombinant ectodomain
Kd [23]: 2.06 nM | Ka [24]: 4.85e+08 M⁻¹ | koff [24]: 0.000299 s⁻¹ | kon [24]: 145000 M⁻¹ s⁻¹
